According to US20260159591A1:

Experiments:
[1] = biological target: human ITGA11 expressed in mouse C2C12 cells (human) (UniProt Q9UKX5); experiment: flow cytometry, 34 nM antibody on C2C12 cells expressing human ITGA11
[2] = biological target: murine ITGA11 expressed in CHO cells (murine) (UniProt P61622); experiment: flow cytometry, 34 nM antibody on CHO cells expressing murine ITGA11
Chain of murine ITGA11 expressed in CHO cells (murine) (P61622 23-1188): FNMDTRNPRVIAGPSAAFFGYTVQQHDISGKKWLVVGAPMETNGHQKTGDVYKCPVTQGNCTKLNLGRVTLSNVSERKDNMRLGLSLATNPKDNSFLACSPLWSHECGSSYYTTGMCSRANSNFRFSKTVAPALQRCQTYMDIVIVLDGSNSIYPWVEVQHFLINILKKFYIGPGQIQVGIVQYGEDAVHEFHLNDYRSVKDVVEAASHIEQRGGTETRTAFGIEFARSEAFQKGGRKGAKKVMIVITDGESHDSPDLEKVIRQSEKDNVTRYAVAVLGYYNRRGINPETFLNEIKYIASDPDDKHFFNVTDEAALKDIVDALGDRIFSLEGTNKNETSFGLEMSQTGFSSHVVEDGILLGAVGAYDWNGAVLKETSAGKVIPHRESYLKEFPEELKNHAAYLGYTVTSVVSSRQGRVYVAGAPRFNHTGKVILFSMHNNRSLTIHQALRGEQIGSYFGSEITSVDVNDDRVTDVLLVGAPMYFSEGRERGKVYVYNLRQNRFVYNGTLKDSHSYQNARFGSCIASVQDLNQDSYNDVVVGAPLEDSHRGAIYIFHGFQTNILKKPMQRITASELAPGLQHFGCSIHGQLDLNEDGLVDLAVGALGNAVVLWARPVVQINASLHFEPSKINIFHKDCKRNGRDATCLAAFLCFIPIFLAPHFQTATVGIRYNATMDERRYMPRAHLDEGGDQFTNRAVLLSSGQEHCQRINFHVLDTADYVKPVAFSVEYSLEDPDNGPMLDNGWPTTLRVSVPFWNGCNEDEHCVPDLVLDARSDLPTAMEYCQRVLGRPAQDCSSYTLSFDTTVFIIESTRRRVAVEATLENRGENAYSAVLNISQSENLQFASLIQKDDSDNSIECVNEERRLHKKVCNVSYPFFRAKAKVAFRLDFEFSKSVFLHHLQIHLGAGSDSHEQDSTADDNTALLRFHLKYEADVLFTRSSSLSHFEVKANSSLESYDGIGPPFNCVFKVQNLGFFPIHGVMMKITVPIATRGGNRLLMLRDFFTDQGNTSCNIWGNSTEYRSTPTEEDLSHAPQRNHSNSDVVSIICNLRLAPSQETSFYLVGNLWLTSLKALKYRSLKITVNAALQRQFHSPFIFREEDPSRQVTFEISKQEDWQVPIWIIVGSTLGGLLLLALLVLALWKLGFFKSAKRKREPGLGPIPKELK

Chain of human ITGA11 expressed in mouse C2C12 cells (human) (Q9UKX5 23-1188): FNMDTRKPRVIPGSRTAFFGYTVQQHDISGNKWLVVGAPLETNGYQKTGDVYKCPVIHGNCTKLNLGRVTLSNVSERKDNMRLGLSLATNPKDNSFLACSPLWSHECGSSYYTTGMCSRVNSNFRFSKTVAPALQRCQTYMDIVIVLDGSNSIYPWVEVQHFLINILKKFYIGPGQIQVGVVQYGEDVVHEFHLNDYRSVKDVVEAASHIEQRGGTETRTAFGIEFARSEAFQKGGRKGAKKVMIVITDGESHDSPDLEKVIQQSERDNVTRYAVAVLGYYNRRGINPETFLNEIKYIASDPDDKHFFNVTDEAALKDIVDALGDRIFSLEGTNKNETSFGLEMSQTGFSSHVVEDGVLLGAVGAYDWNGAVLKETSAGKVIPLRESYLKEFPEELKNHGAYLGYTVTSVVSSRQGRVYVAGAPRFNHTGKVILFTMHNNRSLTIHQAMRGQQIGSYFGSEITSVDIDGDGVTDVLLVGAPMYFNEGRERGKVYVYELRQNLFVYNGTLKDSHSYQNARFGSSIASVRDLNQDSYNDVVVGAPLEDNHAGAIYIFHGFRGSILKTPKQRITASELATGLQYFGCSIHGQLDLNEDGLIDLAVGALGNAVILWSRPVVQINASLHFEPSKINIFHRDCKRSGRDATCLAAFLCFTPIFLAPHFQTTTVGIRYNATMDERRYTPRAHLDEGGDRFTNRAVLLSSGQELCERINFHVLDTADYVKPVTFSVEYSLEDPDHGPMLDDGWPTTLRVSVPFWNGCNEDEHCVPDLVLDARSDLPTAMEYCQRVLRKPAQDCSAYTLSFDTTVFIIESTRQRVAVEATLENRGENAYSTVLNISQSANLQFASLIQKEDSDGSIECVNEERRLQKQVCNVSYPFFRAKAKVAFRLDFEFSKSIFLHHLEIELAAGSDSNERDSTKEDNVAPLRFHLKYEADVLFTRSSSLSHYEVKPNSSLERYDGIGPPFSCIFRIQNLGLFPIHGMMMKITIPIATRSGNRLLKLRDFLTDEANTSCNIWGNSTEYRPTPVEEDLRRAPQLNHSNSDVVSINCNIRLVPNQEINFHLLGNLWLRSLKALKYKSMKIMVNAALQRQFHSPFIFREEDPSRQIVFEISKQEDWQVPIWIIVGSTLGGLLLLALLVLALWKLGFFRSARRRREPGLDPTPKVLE

MFI [1]: 557 MFI | MFI [2]: 513 MFI
Substance: Control IgG4 (antibody)
